# B1: AR708 peptide (peptide)
# peptide: LGERQLVHVV
# notes: Synthetic 10-mer derived from the AR LBD
# Target: T1, HLA-A2 on T2 cells (human)
# T1 construct: whole, on cells; MHC class I molecule on T2 cells
# Assay: T2 binding assay: T2 cells pulsed with 50 ug/mL peptide overnight, surface HLA-A2 by flow cytometry (BB7.2)
row,In Vitro HLA-A2 Expression (Relative Mean Flourescent Intensity),Binder
1,1.33 ratio to unloaded T2 cells,QLTKLLDSV (Synthetic 9-mer) [AR859 peptide]
2,1.16 ratio to unloaded T2 cells,B1
3,1.65 ratio to unloaded T2 cells,KLLDSVQPI (Synthetic 9-mer derived from the AR LBD) [AR862 peptide]
4,2.54 ratio to unloaded T2 cells,LLLFSIIPV (Synthetic 9-mer) [AR811 peptide]
5,2.15 ratio to unloaded T2 cells,RMLYFAPDLV (Synthetic 10-mer) [AR761 peptide]
6,2.66 ratio to unloaded T2 cells,ALLSSLNEL (Synthetic 9-mer derived from the AR LBD) [AR700 peptide]
7,1.01 ratio to unloaded T2 cells,FSIIPVDGL (Synthetic 9-mer derived from the AR LBD) [AR814 peptide]
8,2.19 ratio to unloaded T2 cells,FLCMKALLL (Synthetic 9-mer) [AR805 peptide]
9,1.37 ratio to unloaded T2 cells,VLEAIEPGV (Synthetic 9-mer derived from the AR LBD) [AR677 peptide]
10,1.32 ratio to unloaded T2 cells,WMGLMVFAM (Synthetic 9-mer derived from the AR LBD) [AR742 peptide]
